The text below walks through data of publication PMC4775355 (Cancer research, 2016).

This series concerns the molecule itself. Description: cross-linking.

B1: Flag-PKM2 Y148F mutant (PKM2^Y148F) (enzyme)
chain: not shown
Take B1: the stoichiometry N (as a rule, the number of molecules, sites or subunits per partner or assembly) is 4.
